Source: paper PMC2962900, “Kinetics of Methylation by EcoP1I DNA Methyltransferase” (Enzyme Research, 2010)

How the values were obtained:
purified protein = substrate: C[S+](CC[C@H](N)C(=O)O)C[C@H]1O[C@@H](n2cnc3c(N)ncnc32)[C@H](O)[C@@H]1O; test: purified protein; settings: Mg2+; DNA 1 μM (which DNA not stated); enzyme 400 nM; AdoMet 50 nM-2 μM; 30 min; labelled compound
[1] = target: the molecule itself; test: SEC; Superose 6 HR 10/30, buffer B (10 mM Tris-HCl pH 7.4, 100 mM NaCl, 0.1 mM EDTA, 10% glycerol, 7 mM beta-mercaptoethanol), 0.2 mL/min; 3-15 uM M.EcoP1I loaded; column calibrated with marker proteins

B1: EcoP1I DNA methyltransferase (M.EcoP1I) (Escherichia phage P1) (protein)
chain: MKKETIFSEVETANSKQLAVLKANFPQCFDKNGAFIQEKLLEIIRASEVELSKESYSLNWLGKSYARLLANLPPKTLLAEDKTHNQQEENKNSQNLLIKGDNLEVLKHMVNAYAEKVNMIYIDPPYNTGKDGFVYNDDRKFTPEQLSELAGIELDEANRILEFTTKGSSSHSAWLTFIYPRLYIARELLKEDGVIFISIDDNEDKQLGLLCDEVFGQGNFVAKLPTIMNLKGNHDNFGFSDTHEYIYVYAKNKDVCSLGQFDIDESEVEKEWDEDEYGLFKRADTLKRTGQDASRKSRPKGWFPVFINSENKVYVTDDDKPLNEDDYVLYPVSPTGEELSWSWGKKKINDEFYNLIVIDIKDGKNIYKKQRPALGELPTKKPKSIWYKPEYSTSTATTELKNLLGAKLFEGPKPVPLITDLVKIGTKKDSLVLDFFAGSGTTAEAVAYLNEKDSGCRNFICIQKDEVINKTKNAYSLGYRSIFEITKKRIQEVFKKSTTTSDNAAKIGFKVIHTIDDFRAKVESELTLTNHTFFDDAVLTPEQYDALLTTWCVYDGSLLTTPIEDVDLSGYTAHFCNGRLYLIAPNFTSEALKALLQKLDSDEDFAPNKVVFYGCNFESAKQRELNEALKSYANKKSIELDLVVRN
B1 showed a Km (purified protein) of 0.5 µM.

B2: EcoP1I DNA methyltransferase (M.EcoP1I) (enzyme, bacteriophage P1, UniProt P08763 1-646, looked up)
chain: MKKETIFSEVETANSKQLAVLKANFPQCFDKNGAFIQEKLLEIIRASEVELSKESYSLNWLGKSYARLLANLPPKTLLAEDKTHNQQEENKNSQNLLIKGDNLEVLKHMVNAYAEKVNMIYIDPPYNTGKDGFVYNDDRKFTPEQLSELAGIELDEANRILEFTTKGSSSHSAWLTFIYPRLYIARELLKEDGVIFISIDDNEDKQLGLLCDEVFGQGNFVAKLPTIMNLKGNHDNFGFSDTHEYIYVYAKNKDVCSLGQFDIDESEVEKEWDEDEYGLFKRADTLKRTGQDASRKSRPKGWFPVFINSENKVYVTDDDKPLNEDDYVLYPVSPTGEELSWSWGKKKINDEFYNLIVIDIKDGKNIYKKQRPALGELPTKKPKSIWYKPEYSTSTATTELKNLLGAKLFEGPKPVPLITDLVKIGTKKDSLVLDFFAGSGTTAEAVAYLNEKDSGCRNFICIQKDEVINKTKNAYSLGYRSIFEITKKRIQEVFKKSTTTSDNAAKIGFKVIHTIDDFRAKVESELTLTNHTFFDDAVLTPEQYDALLTTWCVYDGSLLTTPIEDVDLSGYTAHFCNGRLYLIAPNFTSEALKALLQKLDSDEDFAPNKVVFYGCNFESAKQRELNEALKSYANKKSIELDLVVRN
notes: EcoP1I DNA methyltransferase, product of the mod gene of the EcoP1I Type III restriction-modification system of bacteriophage (prophage) P1; 1948 bp gene amplified with primers from the 5' and 3' ends of the open reading frame, cloned in the BamHI site of pET15b (construct pSN2); calculated mass ~75 kDa; No removal of the His6 tag is described. pET15b adds linker residues between the tag and the …
With B2 the “stoichiometry N” value [1] was 2.
